We go through one protein from article PMC8229532 (Structure (London, England : 1993), 2010).

This series deals with the molecule itself. The series is described as follows: crystal structure.

B1: Phd (prevents host death) antitoxin of bacteriophage P1 (natural protein, UniProt Q06253 1-73, looked up)
chain: MQSINFRTARGNLSEVMNNVEAGEEVEITRRGREPAVIASKATFEAYKKAALDAEFASLFDTLDSTNKELVNR
modifications: selenomethionine (expressed in MJ9 minimal medium supplemented with selenomethionine)
With B1, the binding result is “binds”.
